In patent US11998613B2, “Antibody-drug conjugates containing an anti-mesothelin antibody and uses thereof” (DEVELOPMENT CENTER FOR BIOTECHNOLOGY, priority 2020, dated 2024):

What was measured:
mesothelin protein = mesothelin protein (Homo sapiens, UniProt Q13421); test: Binding kinetics of anti-mesothelin ADCs by surface plasma resonance (Biacore T100); details: analyte MSLN
Procedure: The kinetic constant of the anti-mesothelin ADCs interaction against mesothelin was determined by surface plasma resonance (Biacore® T100, Biacore, Inc., Piscataway, NJ). The flow cell of the CM5 wafer was fixed with approximately 10,000 reaction units (RU) of anti-human IgG-Fc (Biacore®) in 10 mM glycine pH 5.0 at 10 μL/min for 600 seconds. 10 μg/mL of anti-mesothelin antibody and anti-mesothelin ADCs diluted in TBS at 10 μl/min were captured on CM5 chips. Four concentrations (from 3.7 to 100 nM) of human mesothelin recombinant protein and zero concentration (flow buffer) in 100 μl/min binding were recorded in PBS containing 1 mM CaCl2 for 3 minutes. The dissociation of the complex was measured for 10 minutes. The water surface was regenerated by injecting 3 M MgCl2 and 3 mM EGTA at 10 μl/min for 60 seconds. The curve obtained after subtracting the reference and buffer signals was taken into the 1:1 Langmuir binding model using the Biacore® T100 evaluation software (Biacore®).

[1] = system: Pancreatic cancer cell line KLM-1 (MSLN+); test: In vitro cytotoxicity, CellTiter-Glo luminescent cell viability assay, KLM-1; format: cell-based, human; details: KLM-1, 72 hours treatment; read-out: Relative IC50 (nM of toxic payload/ADCs)
Procedure: Pancreatic cancer cell line KLM-1 was respectively grown in RPMI 1640 Medium (ATCC modification) medium supplemented with 10% fetal bovine serum. Ovarian carcinoma cell line OVCAR-3 was grown in RPMI 1640 Medium (ATCC modification) medium supplemented with 20% fetal bovine serum. The KLM-1 & OVCAR-3 cell lines were maintained in an atmosphere of 5% CO2 in a humidified 37° C. incubator. The day before treatment, cells were collected and seeded into 96-well plates (4,000 cells per well). On the second day, cells were treated with 3-fold serial dilution concentration of toxic payloads and ADCs. Each treatment was performed in eight triplicate data points. After the treatment of 72 hours, cell viability was assessed by CellTiter-Glo® kit (Promega) according to the manufacturer's instruction. At the end of the incubation, luminescence was measured using a SpectraMax i3x Multi Mode Detection Platform (Molecular Devices). Compound cytotoxicity was evaluated in comparison to cells treated with 0.05% PBS (ADCs) or 0.05% DMSO (toxic payload). IC50 values were calculated by fitting viability data with a four-parameter logistic equation using GraphPad prism 5.0 software.

[2] = In vivo PK in mice, MSD ECL total and conjugated antibody assays; design: species or system BALB/c mice; details: 3 mg/kg via the tail vein
Procedure: The mice were administered at a dose level of 3 mg/kg via the tail vein. Blood samples were then obtained at different time points for determining the concentrations of DCBPR2002-4(DBCO-vc-MMAE) in mice by MESO QuickPlex SQ 120 method.

[3] = system: KLM-1 human pancreatic cancer xenograft; test: KLM-1 xenograft model (Example 43); format: in vivo, male NOD SCID mice; details: 15 mg/kg IV once weekly for 3 weeks
Procedure: Each of the formulations was administered intravenously (IV) to the mice once weekly for three weeks.
(§1) Five mice were housed in each cage.
When the average tumor volume had reached about 200 mm^3, the mice were randomly divided into 3 groups (N=6 per group). Each of the vehicle, DCBPR2002-lysine-DBCO-vc-MMAE (15 mg/kg), and DCBPR2002-4(DBCO-vc-MMAE) (15 mg/kg) was intravenously administered once weekly for 3 weeks.
(§2) Differences are considered significant at *P<0.05.

[4] = system: OVCAR-3 human ovarian cancer xenograft; test: OVCAR-3 xenograft model (Example 47); format: in vivo, female NOD SCID mice; details: for tumor growth / anti-tumor activity: TGI≥58% considered significant
Procedure: as §1
OVCAR-3 cells were subcutaneously (SC) implanted (1×10^7 cells in 1:1 PBS/matrigel mixture at 0.2 mL per mouse) into the right flank of female NOD SCID mice. […] Each of the vehicle, DCBPR2002-4(DBCO-vc-MMAE) (5 and 15 mg/kg), and DCBPR2002-TM (15 mg/kg) was intravenously administered once weekly for 3 weeks.
as §2

[5] = system: OVCAR-3 human ovarian cancer xenograft; test: OVCAR-3 xenograft model (Example 48); format: in vivo, female NOD SCID mice; details: for tumor growth: TGI≥58% considered significant
Procedure: as §1
OVCAR-3 cells were subcutaneously (SC) implanted (1×10^7 cells in 1:1 PBS/matrigel mixture at 0.2 mL per mouse) into the right flank of female NOD SCID mice. […] Each of the vehicle, and DCBPR2002-4(DBCO-vc-MMAE) (5, 10, and 15 mg/kg) was intravenously administered once weekly for 3 weeks.
as §2

[6] = 5 mg/kg IV once weekly for 3 weeks
[7] = 15 mg/kg IV once weekly for 3 weeks
[8] = 10 mg/kg IV once weekly for 3 weeks

Chain of mesothelin protein (Q13421 with tags, fused parts or gaps): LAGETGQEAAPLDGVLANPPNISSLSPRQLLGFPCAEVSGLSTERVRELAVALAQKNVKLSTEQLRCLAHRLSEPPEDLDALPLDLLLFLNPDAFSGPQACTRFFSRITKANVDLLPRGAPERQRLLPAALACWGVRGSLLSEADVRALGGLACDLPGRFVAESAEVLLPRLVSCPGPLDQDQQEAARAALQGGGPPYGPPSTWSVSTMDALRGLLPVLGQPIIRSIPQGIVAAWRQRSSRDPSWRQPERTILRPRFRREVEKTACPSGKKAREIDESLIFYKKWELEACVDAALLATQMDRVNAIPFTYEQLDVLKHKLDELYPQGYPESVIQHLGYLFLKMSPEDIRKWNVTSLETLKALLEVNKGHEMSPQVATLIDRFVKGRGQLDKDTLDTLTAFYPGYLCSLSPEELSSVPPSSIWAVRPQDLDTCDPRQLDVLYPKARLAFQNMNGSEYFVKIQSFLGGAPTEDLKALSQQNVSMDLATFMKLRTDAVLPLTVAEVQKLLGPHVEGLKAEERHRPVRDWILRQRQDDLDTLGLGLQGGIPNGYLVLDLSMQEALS

B1: DCBPR2002-4(DBCO-vc-MMAE): DCBPR2002-4Az reacted with DBCO-vc-MMAE; trimannosyl-conjugated ADC, DAR 3.89 (conjugate)
VH: QVQLVQSGAEVKKPGASVKVSCKASGYSFTGYTMNWVRQAPGQGLEWMGLITPYNGASSYNQKFRGRVTMTRDTSISTAYMELSRLRSDDTAVYYCARGGYDGRGFDYWGQGTLVTVSS
VL: EIVLTQSPATLSLSPGERATLSCSASSSVSYMHWYQQKPGQAPRLLIYDTSKLASGIPARFSGSGSGTDFTLTISSLEPEDFAVYYCQQWSKHPLTFGQGTKVEIKR
Rmax(RU) (mesothelin protein): 55.99 RU | Ka (mesothelin protein; antibody/ADC captured on CM5 chip via anti-human IgG-Fc): 5.395E+6 | dissociation rate constant (koff) (mesothelin protein; dissociation rate, antibody/ADC captured on CM5 chip): 1.17E−4 | IC50 [1]: 101 nM | AUC(0−last) ([2]; Conjugated antibody): 2.264 µg·h/mL | C0 ([2]; Conjugated antibody): 0.275 µg/mL | MRT ([2]; Conjugated antibody): 23.4 h | Vss ([2]; Conjugated antibody): 0.155 L/kg | AUC(0−last) ([2]; Total antibody): 25.963 µg·h/mL | C0 ([2]; Total antibody): 0.346 µg/mL | MRT ([2]; Total antibody): 299 h | Vss ([2]; Total antibody): 0.129 L/kg | t1/2 ([2]; Total antibody): 220 h | body weight changes [3]: No body weight loss was observed | tumor growth / anti-tumor activity ([3]; TGI≥58% considered significant): significantly reduced KLM-1 tumor growth from Day 7 to Day 28 | body weight changes [4, 6]: No body weight loss was observed | tumor growth / anti-tumor activity [4, 6]: significantly reduced OVCAR-3 tumor growth | body weight changes [4, 7]: No body weight loss was observed | tumor growth / anti-tumor activity [4, 7]: significantly reduced OVCAR-3 tumor growth | body weight changes [5, 6]: No body weight loss was observed | tumor growth [5, 6]: significantly reduced OVCAR-3 tumor growth with a dose-dependent manner | body weight changes [5, 8]: No body weight loss was observed | tumor growth [5, 8]: significantly reduced OVCAR-3 tumor growth with a dose-dependent manner | body weight changes [5, 7]: No body weight loss was observed | tumor growth [5, 7]: significantly reduced OVCAR-3 tumor growth with a dose-dependent manner
